Results taken from US20260184791A1 (KYMAB, published 2026).

T1: human ICOS expressed on the surface of cells (human, UniProt Q9Y6W8 21-199)
T1 construct: also called hICOS; Human ICOS CHO
T1 sequence: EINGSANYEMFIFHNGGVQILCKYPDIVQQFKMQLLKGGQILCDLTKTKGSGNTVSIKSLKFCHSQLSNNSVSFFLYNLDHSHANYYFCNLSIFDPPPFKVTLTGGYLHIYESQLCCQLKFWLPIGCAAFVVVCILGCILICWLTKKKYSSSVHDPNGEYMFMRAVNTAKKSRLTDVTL

T2: mouse ICOS expressed on the surface of CHO-S cells (mouse, UniProt Q9WVS0 21-141)
T2 construct: The construct expressed in CHO-S cells is not specified; also called mICOS; Mouse ICOS CHO
T2 sequence: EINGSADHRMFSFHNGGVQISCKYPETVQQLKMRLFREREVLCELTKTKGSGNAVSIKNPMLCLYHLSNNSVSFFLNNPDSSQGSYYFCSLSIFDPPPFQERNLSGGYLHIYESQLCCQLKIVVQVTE


What was measured:
[1] = biological target: T1, human ICOS expressed on the surface of …; assay: Receptor occupancy by chip cytometry on ICOS+ CD4 memory cells (ICOS+CD3+CD4+FoxP3-CD45RA-) from blood of patients dosed with KY1044 every 3 weeks; samples at C1D1, C1D8, C2D1 and C2D8
[2] = biological target: T2, mouse ICOS expressed on the surface of …; assay: flow cytometry, CHO-S cells expressing ICOS, purified IgG1
[3] = biological target: T1, human ICOS expressed on the surface of …; assay: as above

binding result [1] | fold above the average of geomean of the negative control [2] | fold above the average of geomean of the negative control [3] | Binder
binds | – | – | KY1044 (antibody, human IgG1, kappa, V domains shown, also called STIM003; SAR445256) VH: EVQLVESGGGVVRPGGSLRLSCVASGVTFDDYGMSWVRQAPGKGLEWVSGINWNGGDTDYSDSVKGRFTISRDNAKNSLYLQMNSLRAEDTALYYCARDFYGSGSYYHVPFDYWGQGILVTVSS VL: EIVLTQSPGTLSLSPGERATLSCRASQSVSRSYLAWYQQKRGQAPRLLIYGASSRATGIPDRFSGDGSGTDFTLSISRLEPEDFAVYYCHQYDMSPFTFGPGTKVDIKR
– | > 10 fold | > 10 fold | CL-74570 (antibody, human IgG1, V domains shown) VH: EVQLVESGGGVIRPGGSLRLSCAASGFTFDDYGMSWVRQAPGKGLEWVSGINWIGDNTDYADSVKGRFTISRDNAKNSLYLQMNSLRAEDTALYYCARDYFGSGSYYNVPF VL: not shown
– | > 10 fold | > 10 fold | CL-61091 (antibody, human IgG1, V domains shown) VH: QVQLMQSGTEVKKPGASVKVSCKTSGYTFTTYGITWVRQAPGQGLEWMGWISAYSGDTDYAQKFQGRVTVTTDTSTNTAYMELRSLKSDDTAVYYCARSSGWPHHYGMDVWGQGTTVTVSS VL: DIVMTQSPLSLPVTPGEPASISCRSSQSLLHSNGFNYFDWYLQKPGQSPQLLIFLVSNRASGVPDRFSGSGSGTDFTLKISRVEAEDVGIYYCMQALQTPLTFGGGTKVEIK
